The text below walks through data of publication PMC7948595, “1,6-Hexanediol, commonly used to dissolve liquid–liquid phase separated condensates, directly impairs kinase and phosphatase activities” (The Journal of Biological Chemistry, 2021).

The target of this assay is T1, GST-Cdk7 (2–346) (human, UniProt P50613 2-346).
T1 construct: Cdk7, human, residues 2-346
Nature of the assay: pull-down; 10 µg of purified CDK–cyclin complex immobilised by its GST-tagged subunit on GSH 4B sepharose beads in 100 µl PBS; incubated 1 h in PBS or PBS with 5% 1,6-hexanediol; washed three times; eluted in SDS-sample buffer; Coomassie-stained SDS-PAGE. Conditions: both partners purified.

T1 sequence (P50613 2-346): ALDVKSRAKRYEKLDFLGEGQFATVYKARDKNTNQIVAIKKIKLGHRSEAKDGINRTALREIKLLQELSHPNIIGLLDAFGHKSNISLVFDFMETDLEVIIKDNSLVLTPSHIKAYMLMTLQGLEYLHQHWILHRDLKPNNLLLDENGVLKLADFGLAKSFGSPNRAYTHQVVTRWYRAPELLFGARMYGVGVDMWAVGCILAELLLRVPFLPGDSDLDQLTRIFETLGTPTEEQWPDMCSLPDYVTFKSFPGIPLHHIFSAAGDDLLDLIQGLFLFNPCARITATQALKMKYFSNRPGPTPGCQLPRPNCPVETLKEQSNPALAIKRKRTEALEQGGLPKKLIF

B1: Cyclin H (1–323) (natural protein, human, UniProt P51946 1-323, looked up)
chain: MYHNSSQKRHWTFSSEEQLARLRADANRKFRCKAVANGKVLPNDPVFLEPHEEMTLCKYYEKRLLEFCSVFKPAMPRSVVGTACMYFKRFYLNNSVMEYHPRIIMLTCAFLACKVDEFNVSSPQFVGNLRESPLGQEKALEQILEYELLLIQQLNFHLIVHNPYRPFEGFLIDLKTRYPILENPEILRKTADDFLNRIALTDAYLLYTPSQIALTAILSSASRAGITMESYLSESLMLKENRTCLSQLLDIMKSMRNLVKKYEPPRSEEVAVLKQKLERCHSAELALNVITKKRKGYEDDDYVSKKSKHEEEEWTDDDLVESL
notes: Cyclin H, human, residues 1-323; also called CycH
B1: the binding result is “binds”.
